Assay [1] has as its system MoT cells. Kind of assay: CFSE suppression assay: Mabs pre-incubated with MoT cells, then co-cultured with CD3/28-stimulated CD4+ PBMC. It is filed as cell-based, human. Conditions: Mab pre-incubated with MoT cells 30 minutes, CD4+ PBMC:MoT ratio 1:1/2, CFSE flow cytometry (FIGS. 5D, 5F, 5H). The protocol: (§1) Suppression assays. After IRB approval at Arizona State University (protocol #0601000548), peripheral blood was collected from healthy donors. After Ficoll-Paque Plus gradient separation of the buffy coat, CD4+ cells were purified using EasySep Human CD4^+ T Cell Isolation Kit (Catalog #17952 from Stemcell Technologies). Cells were allowed to rest overnight in cIMDM at 37° C. prior to labeling with CFSE (Carboxyfluorescein succinimidyl ester, from Cayman Chemica cat #10009853) dye to track cell divisions. The following day, CD4^+ T cells were counted, stained with CFSE, washed in PBS and then plated in IMDM with 10% FBS at 3×10^5 cells per well in a 48-well plate coated with OKT3 antibody at 5.0 ug/mL for 2 hours at 37° C. then washed twice in PBS before adding soluble co-stimulatory anti-CD28 (eBioscience clone CD28.6) at 5.0 ug/mL final concentration.
In some studies MoT and Jurkat cells were labeled with Cell Trace FarRed dye (Thermofisher) to gate MoT and Jurkat cells away from CD4^+ PBMC in flow cytometry analysis. Two-fold serial dilutions of MoT and Jurkat cells were added to CD4^+ PBMC, starting at 1.5×10^5 MoT and Jurkat cells (1:1/2 ratio CD4^+ T cells:tumor cells). Final volume per well was 1 mL. Cells were incubated for 5 days. […]

For assay [2], the system named is CD4+ PBMC. The assay can be described thus: CFSE proliferation assay: Mabs co-incubated with CD3/28-stimulated CD4+ PBMC without MoT cells. The assay is classed as cell-based, human. Conditions: no MoT cells (FIGS. 5C, 5E, 5G). The protocol: as §1
(FIG. 5A) Unstimulated PBMC. (FIG. 5B) CD3/28-stimulated CD4^+ PBMC cell division without MoT cells. (FIG. 5C) Anti-GITR, (FIG. 5E) Anti-CCR4 mogamulizumab, and (FIG. 5G) anti-PDL-1 (atezolizumab) co-incubated with PBMCs. (FIG. 5D) Anti-GITR, (FIG. 5F) anti-CCR4 (mogamulizumab), and (FIG. 5H) anti-PDL-1 (atezolizumab) co-incubated with PBMCs and MoT cells (1:½ ratio).

The values that follow come from patent US11391726B2, “MoT cells as a therapeutic screening tool for regulatory t-cell activity” (ARIZONA BOARD OF REGENTS ON BEHALF OF ARIZONA STATE …, priority 2018, dated 2022).

B1: mogamulizumab (antibody, chains of the INN, looked up, V domains shown)
VH: EVQLVESGGDLVQPGRSLRLSCAASGFIFSNYGMSWVRQAPGKGLEWVATISSASTYSYYPDSVKGRFTISRDNAKNSLYLQMNSLRVEDTALYYCGRHSDGNFAFGYWGQGTLVTVSS
VL: DVLMTQSPLSLPVTPGEPASISCRSSRNIVHINGDTYLEWYLQKPGQSPQLLIYKVSNRFSGVPDRFSGSGSGTDFTLKISRVEAEDVGVYYCFQGSLLPWTFGQGTKVEIK
With B1, the “reversal of MoT cell-mediated suppression of CD4+ PBMC proliferation” value in assay [1] was “None of the checkpoint inhibitor Mabs including anti-GITR reversed MoT cell-mediated suppression”; in assay [1] (listed as ant-CCR4) it was “did not attenuate MoT Treg suppressive activity”. In addition, the “suppression or inhibition of CD4+ PBMC proliferation by the Mab alone” value in assay [2] is “do not suppress or inhibit”.
